Test results from the DeepSol protein solubility set.

Experiment: soluble on expression in E. coli; label from the status in PepcDB or PDB records

Which “soluble on expression in E. coli” value does the source give for “MSLTHTSDKHVTDEELELVTRGKADGIYMKAPNGSPTSLNERQWVQVRTRAFKNWFGDWENVPEAASRIPDDKYGNEQWTEEGYVYDLYVNSRNPFDPKDGQAVKKILQSLGSEIPVLSFYGGKGGTVSPEKALELASSKRNCWMLTETPEFLSKVREAGYDGLVGYDEGVKYIAVMSPGQLKDAYENTGAFSTSNDDIRFRQVYHGSPASLGHFDHAFTGTGEGAQAYGWGTYVTEVKGIARKYAAIGIKRGNHITYDGEPLSPVLDNEYYFDEVWRIWKRQILSSTDVDSLKRNISSVYMDGRTASAYSGRRKAFERQKQELLSDIDAGRIRIEPPRHLYTVEIPEDNGMNYLYWDRPVSAEQQGKIFLQLRKERFFFPEATAEFWSGRSHVWNSGKEFYGFLDYMFMNPDRDTDSQRLASGFLSRAGFTGIDYPAECSTGGRADGARNYVIFSEADLKITAHERFRFIGEKGASRLDRSEGASLRLENLAVAREMEKSGKDAGTIKAATGWERGADSKWRYETADFEYHPAGDLGYSRLLEKQSWHGELENLLDRQIEGETLSEAEWKRFEKLTELAAGLKEQDALRERIYLDDYVKDDELFQAYPEMKRTRLEFVDLPSADYCGGYLHPDNRIVINISRTDDVRSVLAHEIQHAIQTMEGFARGSNPGEFKNTVENVILDIVRATDGRILEGGGFDNTPKGIFAALDRKVPYGTILRHYDYPLSLVAEKYGYENIFDLVNDIGRFKSGIQEYRSTAGEVEARNVESRLDFTSAQRRNTLAVSTEDIARNGQIFLSRDVRMDELARHVSFLAGKLHIPVEVIRHADEVGSPDIRGLLSCGKDIRGWYDIPSQRVCLYLPHVRGKADVERTLLHEGVAHYGLRKLAGHKHMDAFLDDIFNGCGEKVRDEILRMAAADRTDIRVATEEYLARMAEDGTDQSLWDRIVTAFRNLLRKLGFCLEIGTRELRGILAASRKNLIGIAEPTVIQTARGDLELSCGYGRAVLRRQGVETDVTSLLERMRKAGISPASLGQEDWKAVFNGGIILPGGRKLMAVREPAGYGMRISGVSPGSTREGHHHHHH” here?
The value was “soluble”.

Which “soluble on expression in E. coli” value does the source give for “MSLTITLRVLGTSVTLLESLRERAEQELGIKLVYQIHDVQTAQRIAVMQPDSYDLYDQWFHNVDFVWPARAIQPIDTRRIALWHEINDLPKRGRLRPTDQPGSGSVPSERLFVQHDGSLGSTVTERISMLPLTHNADSFAYRPERLPEGLSPADESWGWLLDSAWGGRIALQSDAAIGALDAALAVQGAGLAQFNDIGNMSIEEIDLLADVLVRKQQQGHFGAFWSDDEEAAELMLSPTIDIQSLWSPTLVRLHRAGVKYRVAVPKEGYRGWFGGLSLSRYAKGPVLDAAYAYLNWWLSGWPGAVMARQGYYIGNPARSRDHLSAAEWDYWYAGLPAREQLLGSDGLPLIDAGEIRDGGSYEERMGHIAVWNSVMNEHNYLVRRWSDILRASGKSSAKAREGHHHHHH” here?
Its value is “soluble”.

For “MSLTLIYGHRGAKGEAPENTLASFQRCLEHGVNRCELDLHLSRDGELMVIHDPTLKRTTGRRGKVAEHDAATLATYDARKGGPGWVRPTPIPRLEELFEKCPFEHWQLEVKSASRERAARTVTRIRELTERFGNRDKVTVTSGSRTVLKALNELTPELSRGLVAEYAWLDPLKVAQHYGCALLALNWTLCTPERLLKAQRQGLHVSVWTVNEPALMRRLADFGVDSLITDFPGLASATLGNEGHHHHHH”, which “soluble on expression in E. coli” value is on record?
Its value is “not soluble”.

Which “soluble on expression in E. coli” value does the source give for “MSLTLKLFELVGADAGRPFSPFVWRTRMALAHKGLTAETIPWRFTDKAAIAPYGSEKVPVLLDGDKVVADSWAIANYLEDAYPDRPSLFGGDGGRAMARMLNWWGDLAIIGGIFPMIVADIAQRLDPEDAAYFRQSREARLKTTLEEAAASRDRAVQGFRKSLDPLRLTLKTQAFIGGAAPNYADYIVFGGFQWARVVSDFSLLQSDDPVYAWRERLLDAFGGLARATPGYPVEGHHHHHH” here?
The value was “soluble”.

Which “soluble on expression in E. coli” value does the source give for “MSLTLPDTDQLVAGIQSWIQCESPSNSPAGVTAMAHLAAEYARAVGLAVEIRPLNAEVGPLVHATNRAAGDTRPGVLILGHIDTVHPIGTLQDNPCRIDGDRLYGPGSYDMKAGIYLALSALRGLPSPDATALPVDFLLVPDEETGSHASREHIEHYAARAKYALVCEPARPNGGKCVTARKGTGMLRLNVKGRPAHAGMQHEKGRSAIREMAHQVLELESMTDYERGITVSVGTIAGGTVTNTVPAQCRCVVDFRVPDMGATEDVLRRMRNLCSVGPDMELDIDVELNRPPMVKTEAASALLQLAQDFAAQAGFALEDAPMTGGGSDANFTSAMGVPTLDGLGADGDGAHTLNEYILVSTLAARMRFWELLLKELHEGHHHHHH” here?
The value was “soluble”.

For “MSLTMDVPPTIHVPLPPTSYPAFDAAIFTDIGGRKHQEDRFTLCPQLVPGRDDCAFFGVFDGTVGDFASENVKDLVVPQLISSPAWQEVTEMLRSDVPATEVDEKLPQLLDQAVDDMYKNADNELVKMCEQLNKDYASSTSVTAVLAKGFVAVGHLGDSRIAMGVETPNGLNCEFLTVDHKPDMPHEKLRIMRNGGSVEYLHNHNNKPFIRGGDFSFRKSRGEQPMQLQYSRAFGGKDLKMYGLSNQPDVRVVRVTPQHRVMILATDGLWDVMSAAQAVEIAMQARQEGRNPAQALVEMTLAEQQSRNQSADNITAMTVFFKKTDEGHHHHHH”, which “soluble on expression in E. coli” value is on record?
The value was “soluble”.

Which “soluble on expression in E. coli” value does the source give for “MSLTNTNAVELVKEAIDRGAEIILVKVDSKKYVKMSLELVKHFTEFAEGIFVTLNRPYFSLKKMLLKEGVDISKLYFIDCITLQLGGQVIDEERCFYLTSPDPVQLQVTIERAMDLVTVNNRFIYLDSLSTISLYKSFETLVKFLRHLTGKMRLRGFVGTIFTIEKEMDESYYSQISLMVDEVIEVDEGHHHHHH” here?
Its value is “soluble”.

Which “soluble on expression in E. coli” value does the source give for “MSLTNYKVVVLDMDDTLLNSDNVISEETANYLTAIQDEGYYVVLASGRPTEGMIPTARDLKLPEHHSYIISYNGSKTINMTNEEVEVSKSIGKQDFDEIVDYCRDRGFFVLTYHDGQIIYDSEHEYMNIEAELTGLPMKRVDDIKAYIQGDVPKVMGVDYVANITEARIDLNGVFNDNVDATTSKPFFLEFMAKDVSKGNAIKALCHKLGYSVDQVIAFGDSMNDKSMFEVAGLAIAMGNASDELKQYADEVTLDHNENGIPHALKKLLEGHHHHHH” here?
Its value is “soluble”.

With “MSLTQQITLIKDKILSDNYFTLHNITYDLTRKDGEVIRHKREVYDRGNGATILLYNTKKKTVVLIRQFRVATWVNGNESGQLIESCAGLLDNDEPEVCIRKEAIEETGYEVGEVRKLFELYMSPGGVTELIHFFIAEYSDNQRANAGGGVEDEDIEVLELPFSQALEMIKTGEIRDGKTVLLLNYLQTSHLMDEGGSHHHHHH” as the sequence, how does the “soluble on expression in E. coli” value read?
The value was “soluble”.

For “MSLTSEDFLIKSKGYLDIQTGEIIKADLLIRNGKIAEIGKINTKDATVISIPDLILIPGLMDSHVHIVGNDSKGEESIADSSHMGTVWGVVNAEKTLMAGFTTVRNVGAANYADVSVRDAIERGVINGPTMLVSGPALGITGGHCDHNLLPPEFNYSSEGVVDSPWEARKMVRKNRKYGADLIKFCATGGVMSRNTDVNAKQFTLEEMKAIVDEAHNHGMKVAAHAHGLIGIKAAIKAGVDSVEHASFIDDETIDMAIKNNTVLSMDIFVSDYILGEGAKAGIREESLNKERLVGKKQRENFMNAHRRGAIITFGTDAGIFDHGDNAKQFAYMVEWGMTPLEAIQASTIKTATLFGIENIGQIKEGFDADIVGVIENPLANIRTLEEVAFVMKEGKVYKREGHHHHHH”, which “soluble on expression in E. coli” value is on record?
The value was “soluble”.

Which “soluble on expression in E. coli” value does the source give for “MSLTSEIIDVHMHCFVGRQQETALARDIALLRREGLRRMVVAGLVNTHPDPETTWNLIPDYVENHGDPHFNEADDLLALAESVDHALLPFVDTRYLRGDVATALDGYMGQGFKGVKGIYLPDNENDLGVGNVPDTLGISLEQYRRREWDLFAYAENHDLPLLYHMDARRYGDVMKDLLDDFPRVRVNFPHLGIGRKAFSAFLDRYPNIFTDIAGLLPYMRSNPASYRDFIMHYPDRICFGTDTFLYQAGSALDYISMVRELRLPEEIEAQVFNGNPTRFLGCVLYGAEGHHHHHH” here?
Its value is “not soluble”.

Which “soluble on expression in E. coli” value does the source give for “MSLTSQKTQLEPLGIVRIEGLHYYVHDLERSRRFYAQKLDFAEVARSTPALEREGRQRSAVFEAGGVRVVCSEPVGQGGRAWRWLRKHPDGVGTVVLEVEDAERAFRLLEERGGTPITDVQEHRDDGGTLRTFSITTPLGDTTFRFVERRGFRAVYPGIEPLAAPEGGRNAFGFGHVDHLTNNFQTMKPALLWMEHVMGMEEFWEVEFHTKDAAGARRAAIEAQKGSGLRSVVMRDPRSGVKFANNEPRRPAFKSSQINLFNEDLRGDGVQHAALTVQDILSSVRGMRARGVEFMPTPAAYYEALPERIRSTGIGRIDEDPRVLQELEILVDGAGDHSYLLQIFLRESAGLYHDPDAGPFFFEIIQRKGDQGFGAGNFRALFESIEREQVREGREGHHHHHH” here?
Its value is “soluble”.

Which “soluble on expression in E. coli” value does the source give for “MSLTSWNATIDPDNTIRFKEPDVLFDSGKSQVKERFKVVLDDFFPRYVKILSQEKYKGDIEEIRIEGHTSSEWLNAKTLEERYLGNAALSQARAFEVLKYCFALERIKGEQDWLIKVLRANGLSFAKPLDSEEHSRRVEFRTLTRSHQKMLKILDLSKEGHHHHHH” here?
Its value is “not soluble”.

Which “soluble on expression in E. coli” value does the source give for “MSLTVPTILVIDDDVQVCETIASLLARLRYACETAHSLEQGLAILETAPVDVVFLDVRLPDGNGIDALPRIRQAPSHPEVIILTGEGDPDDAELAIQGGVWDYLVKPTPIKQTTLTLARALQYRAEKLSKGGGGTVALDLDGVVGISPSMRQCFDLVANAATTEANVLVTGETGTGKELLARTIHRNSPRRNGPFVVVDCAALTESLVESTLFGHKRGAFTGAQQDRDGLVKLADGGTLFLDEVGEMPLAIQRAFLRILQERSFRPVGGTQEIRSDFRLISATNRDLDAMVERGEFRKDLLFRLNTVHVELPPLRTRPEDLKPLAIFHMNRLAEQYGVPAKGFATDFFQQLAQYDWPGNVREFFNVLERSFVISGLEGVLYAMHLPQDVRIKITRASLARSEGHHHHHH” here?
Its value is “soluble”.

Which “soluble on expression in E. coli” value does the source give for “MSLTVTIKDVAKKANVAPSTVSRVIADNPSISEKTKRRVRKVMSELGYHPNLNARSLANQTTKTIGLVMPSSANKAFQNPFFPEVIRGISSFAHVEGYALYMSTGETEEEIFNGVIKMVQGRQIGGIILLYSRENDRIIQYLNEKNFPFVLIGKPYDKKDKITYVDNDNYTAAREVAEYFISLGHKRIAFIGGGSDLLVTKDRLAGMSDALKLADIQLPSEYIFHLDFSRESGQQAVEELMGLKEPPTAIMATDDLIGLGVLSALTAKGISVPKDVSLVSFNNVLLSEIASPPLTTVDVNIYQLGYEAAKALVDKVEHSESSSKCIVIPHKLLKRQTCEGHHHHHH” here?
Its value is “soluble”.

Which “soluble on expression in E. coli” value does the source give for “MSLTYDLLITDSHVITPKGMVEKNIVVENGKIELITNDSPDCDKKINGSGLVSIPGLIDPHVHYGVYSPIDQAAISESHAAAIGGVTTMIRMFRLKGSYKESLNKHLLASQNSHYIDYTLHASIFDDSQISEMQYCAENKIISFKIYMNLGGDVGHVYMEMNPGEEKLIAAEVNVTNELVEKIVKNAASLKCPVLVHAEDYQECSCGMKTEKEKNHDGLNAWSESRSPNFEAKSIQIICEYGRKYDCQIYFVHIGSKLALDKIKEEKKKGTKIFVETCPHYLTLSHETQTGYLAKVMPPIRTNNDVQSVWNALQNNEIDTIGTDHVANQLKLKLGGDDVWGALAGFPGIGTSLPILLSEGINKNRINLNQLANLTSTNSAKIFGLSGKGSLEKGYDADITMIDLKKEEKVSPELFGGFSDYLVYDGWNLKGWPVKTIVRGTVVAEDFEVIGKPGYGNFVPRKLSEGHHHHHH” here?
Its value is “not soluble”.

Which “soluble on expression in E. coli” value does the source give for “MSLTYYDDIRKVQDLHLPWEILTDINILIVGASGLIGRALVDTLMQLPDKTFHLYAGVRDLVYAQSCFMRYKDDESFTLIQCDVTALIPFDIDFHYIIHAASYAGPAAFHNDPVGVMKANILGVDNLFSYGEQHNLRRLLYVSSGEVYGEGNGIPFREEDSGSLDWASLRACYPAAKRTAETLCIAYAAQFQIETVIARPCHIYGPFYTSKDDRAYAQFIRNVLAGENIILRSSGLQQRSWCYVVDCVFALLYVLLKGKTKNAYNIADVRSNVSIREFAEMIALKSEREVIFDLPDNTGKNKPIISQAIFNTEKINKIGWFPQWKLEEGVSHTLNTLISVDGTYEGHITITTDPNSSSVDKLAAALEHHHHHH” here?
Its value is “soluble”.
